# Test results published in article PMC8163392, “Interrogating surface versus intracellular transmembrane receptor populations using cell-impermeable SNAP-tag substrates†” (Chemical Science, 2020).
# B1: HA-SNAP-metabotropic glutamate receptor 2 (receptor, UniProt P31421 19-872, looked up)
# chain: EGPAKKVLTLEGDLVLGGLFPVHQKGGPAEECGPVNEHRGIQRLEAMLFALDRINRDPHLLPGVRLGAHILDSCSKDTHALEQALDFVRASLSRGADGSRHICPDGSYATHSDAPTAVTGVIGGSYSDVSIQVANLLRLFQIPQISYASTSAKLSDKSRYDYFARTVPPDFFQAKAMAEILRFFNWTYVSTVASEGDYGETGIEAFELEARARNICVATSEKVGRAMSRAAFEGVVRALLQKPSARVAVLFTRSEDARELLAATQRLNASFTWVASDGWGALESVVAGSERAAEGAITIELASYPISDFASYFQSLDPWNNSRNPWFREFWEERFHCSFRQRDCAAHSLRAVPFEQESKIMFVVNAVYAMAHALHNMHRALCPNTTHLCDAMRPVNGRRLYKDFVLNVKFDAPFRPADTDDEVRFDRFGDGIGRYNIFTYLRAGSGRYRYQKVGYWAEGLTLDTSFIPWASPSAGPLPASRCSEPCLQNEVKSVQPGEVCCWLCIPCQPYEYRLDEFTCADCGLGYWPNASLTGCFELPQEYIRWGDAWAVGPVTIACLGALATLFVLGVFVRHNATPVVKASGRELCYILLGGVFLCYCMTFVFIAKPSTAVCTLRRLGLGTAFSVCYSALLTKTNRIARIFGGAREGAQRPRFISPASQVAICLALISGQLLIVAAWLVVEAPGTGKETAPERREVVTLRCNHRDASMLGSLAYNVLLIALCTLYAFKTRKCPENFNEAKFIGFTMYTTCIIWLAFLPIFYVTSSDYRVQTTTMCVSVSLSGSVVLGCLFAPKLHIILFQPQKNVVSHRAPTSRFGSAAPRASANLGQGSGSQFVPTVCNGREVVDSTTSSL
# modifications: JF549 (two-colour experiment: JF549 or JF646) covalently attached to the SNAP-tag
# notes: metabotropic glutamate receptor 2 (mGluR2), class C GPCR; The rat receptor is my surmise; also called HA-SNAP-mGluR2; SNAP-mGluR2; source: HEK 293T, transfected, in lysate (1.2% IGEPAL); not shown: SNAP-tag, N-terminal, kept
# Target: the molecule itself
# Assay: single molecule pulldown (SiMPull) with counting of photobleaching steps; surface receptors labelled on live cells with 1 uM SBG-JF549; cells lysed in 1.2% IGEPAL, lysate diluted in 0.1% IGEPAL; receptors captured at low density by biotinylated anti-HA antibody on NeutrAvidin/PEG coverslips; TIRF imaging
protein,measurement,value
B1,stoichiometry N,2
